Here are results for 1 molecule from US20180073027, “CD117 Ligand-Drug Conjugates For Targeted Cancer Therapy” (THE METHODIST HOSPITAL SYSTEM, published 2018).

This series deals with CD117 (KIT, c-Kit) (UniProt P10721 P10721:26-976). The series is described as follows: flow; HEL cells, room temperature 30 min; no binding to CD117-negative CA46, U937, MDA-MB-468, LNCaP cells. Conditions: tags: endogenous on HEL AML cell line (ATCC) or primary AML marrow cells; label: 5'-Cy3; G4.

The term Kd denotes the free concentration of one partner at which half of the binding sites on the other are occupied at equilibrium, for simple one-to-one binding. Higher therefore signals weaker binding.

Chain of CD117 (KIT, c-Kit) (P10721 26-976, one chain of several): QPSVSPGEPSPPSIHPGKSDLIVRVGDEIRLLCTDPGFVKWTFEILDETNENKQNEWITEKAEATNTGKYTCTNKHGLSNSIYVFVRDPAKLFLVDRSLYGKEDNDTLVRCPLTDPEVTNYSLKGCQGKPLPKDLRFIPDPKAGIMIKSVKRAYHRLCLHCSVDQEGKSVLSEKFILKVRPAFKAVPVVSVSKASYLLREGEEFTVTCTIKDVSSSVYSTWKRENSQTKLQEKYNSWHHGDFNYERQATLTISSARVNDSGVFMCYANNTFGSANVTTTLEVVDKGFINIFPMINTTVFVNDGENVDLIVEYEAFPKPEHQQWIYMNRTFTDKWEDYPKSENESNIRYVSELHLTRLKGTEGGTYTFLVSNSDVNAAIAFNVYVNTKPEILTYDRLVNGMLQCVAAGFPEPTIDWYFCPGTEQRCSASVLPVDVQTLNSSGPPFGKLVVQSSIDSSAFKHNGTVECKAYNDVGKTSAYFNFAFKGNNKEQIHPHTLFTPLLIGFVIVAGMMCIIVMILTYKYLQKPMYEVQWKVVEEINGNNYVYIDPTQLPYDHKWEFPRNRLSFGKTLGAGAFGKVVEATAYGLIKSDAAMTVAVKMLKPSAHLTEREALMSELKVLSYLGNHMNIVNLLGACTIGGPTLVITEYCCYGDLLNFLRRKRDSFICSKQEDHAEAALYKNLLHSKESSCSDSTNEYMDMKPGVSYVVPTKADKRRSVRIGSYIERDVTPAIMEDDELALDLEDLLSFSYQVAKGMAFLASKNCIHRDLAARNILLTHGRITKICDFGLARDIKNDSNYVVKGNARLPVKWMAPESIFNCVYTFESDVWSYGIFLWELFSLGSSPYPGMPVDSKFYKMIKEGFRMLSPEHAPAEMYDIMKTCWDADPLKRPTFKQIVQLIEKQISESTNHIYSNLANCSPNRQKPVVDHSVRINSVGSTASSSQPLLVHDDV

B1: CD117 aptamer #1F (full length) (ssDNA)
DNA: GAGGCATACCAGCTTATTCAAGGGGCCGGGGCAAGGGGGGGGTACCGTGGTAGGACATAGTAAGTGCAATCTGCGAA
Take B1: the Kd amounted to 6.3 nM.
